# Tests used:
# [1] = molecular target: T1, HIF-1α 1-350;HIF-1β (ARNT) 1-474 (human?;human?, UniProt Q16665;P27540 1-350;1-474, |); assay: EMSA; EMSA: Tris-HCl (concentration and pH not in material), 50 mM KCl, 50 mM NaCl, 5 mM DTT, 1 mM MgCl2, 1 mM EDTA, 10% glycerol, 5 µg BSA, 25 ng poly dI-dC; 30 min
# [2] = molecular target: HIF-2α (EPAS1) 1-351;HIF-1β (ARNT) 1-474 (human?;human?, UniProt Q99814;P27540 1-351;1-474, |); assay: as above
# [3] = molecular target: T1, HIF-1α 1-350;HIF-1β (ARNT) 1-474; assay: competition; unlabelled DNA titrated against labelled probe N1 (EMSA); EMSA: Tris-HCl (concentration and pH not in material), 50 mM KCl, 50 mM NaCl, 5 mM DTT, 1 mM MgCl2, 1 mM EDTA, 10% glycerol, 5 µg BSA, 25 ng poly dI-dC; 30 min
Binder,binding result [1],binding result [2],binding result [3]
EMSA HRE probe (human EPO enhancer) (dsDNA) DNA 1: GGCTGGGCCTACGTGCTGTCTCACACAGCC DNA 2: GGCTGTGTGAGACAGCACGTAGGCCCAGCC,binds,binds,
unlabelled HRE competitor DNA (dsDNA) DNA 1: GGCTGGGCCTACGTGCTGTCTCACACAGCC DNA 2: GGCTGTGTGAGACAGCACGTAGGCCCAGCC,,,binds

# From paper PMC3715890
